According to PMC5127641 (eLife, 2016):
Where “and” joins values, the source holds several entries; their conditions need not be identical. Equal entries are not always repeated.

Molecular target: M-CDP04 (αMCL1)
Test: BLI; biotinylated BCL2 homolog (25 nM) immobilised on streptavidin biosensors, designed protein in solution at defined concentrations; Octet RED96; 10 mM HEPES pH 7.4, 150 mM NaCl, 3 mM EDTA, 0.05% surfactant P20, 0.5% non-fat dry milk; titrations in triplicate, 1:1 binding model
Details: both partners purified

B1: Bcl-B (natural protein)
chain: ADPLRERTELLLADYLGYCAREPGTPEPAPSTPEAAVLRSAAARLRQIHRSFFSAYLGYPGNRFELVALMADSVLSDSPGPTWGRVVTLVTFAGTLLERGPLVTARWKKWGFQPRLKEQEGDVARDCQRLVALLSSRLMGQHRAWLQAQGGWDGFCHFFRTPFPLA
modifications: biotin (enzymatic, BirA)
- koff: 0.199 s⁻¹ and 0.186 s⁻¹ and 0.148 s⁻¹ and 0.178 s⁻¹
- kon: 5830 M⁻¹ s⁻¹ and 9300 M⁻¹ s⁻¹ and 13200 M⁻¹ s⁻¹ and 9440 M⁻¹ s⁻¹
